Data taken from patent publication US6699869.

Tested on: (D)FPR-PNA

Substance: bovine thrombin (from Sigma)
- Kcat/KM of substrate hydrolysis: thrombin: Kcat/KM=2.20×10^7 M^-1 S^-1
